According to the supplement of paper PMC10724198:

Assays:
Saccharomyces cerevisiae [1] = experiment: protein stability index of tFT-peptide fusion in deletion strain of DAS1 (PSI (0-1 scale)); higher = more stable (slower turnover)
Description: (§1)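 MPS profiling in S. cerevisiae of two library types built from selected 12-aa C-degron peptides (IN1, IN2, LN1, LN3, VN2, R1-R5, W1-W3, Atg1 and Rpa12 C-termini): saturation mutagenesis libraries and C-terminal +1 capping libraries (13 aa). Each peptide is fused to the C-terminus of a sfGFP-mCherry timer, after a GGGS linker. Cells are FACS-sorted into 8 mCherry/sfGFP bins and sequenced. PSI runs from 0 (unstable) to 1 (stable), measured once in wild type and in the das1Δ or doa10Δ background.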

Saccharomyces cerevisiae [2] = experiment: protein stability index of tFT-peptide fusion in wild type (PSI (0-1 scale)); higher = more stable (slower turnover); conditions: genetic background: wild type
Description: as §1
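Wherever protein stability index of tFT-peptide fusion in deletion strain of DAS1 is given: PSI is a weighted mean of each variant's read distribution over the sorted stability bins, computed only for variants having over 10 reads in total.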
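Wherever protein stability index of tFT-peptide fusion in wild type is given: PSI derived as read-weighted mean over the 8 sorting bins, only variants exceeding 10 total reads kept, mCherry placed adjacent to the peptide and sfGFP distal.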

| Sequence | protein stability index (Saccharomyces cerevisiae [1]) | protein stability index (Saccharomyces cerevisiae [2]) |
| --- | --- | --- |
| ILIQPLPVQFLN | 0.59 | 0.093 |
| ISLAASFWRVVG | 0.663 | 0.109 |
| ISMRWTFRYWVN | 0.481 | 0.059 |
| KIHKKGQKQKIN | 0.494 | 0.0466 |
| KKHKDGQKQKIN | 0.602 | 0.0686 |
| KKHKEGQKQKIN | 0.581 | 0.12 |
| KKHKHGQKQKIN | 0.637 | 0.0725 |
| KKHKKGFKQKIN | 0.589 | 0.0758 |
| KKHKKGQDQKIN | 0.574 | 0.616 |
| KKHKKGQKEKIN | 0.606 | 0.124 |
| KKHKKGQKQGIN | 0.606 | 0.703 |
| KKHKKGQKQKIA | 0.597 | 0.128 |
| KKHKKGQKQKIND | 0.658 | 0.666 |
| KKHKKGQKQKINH | 0.668 | 0.653 |
| KKHKKGQKQKINW | 0.657 | 0.643 |
| KKHKKGQPQKIN | 0.6 | 0.0925 |
| KKHKKKQKQKIN | 0.593 | 0.0427 |
| KKHKNGQKQKIN | 0.622 | 0.145 |
| KKHKSGQKQKIN | 0.603 | 0.106 |
| KKHYKGQKQKIN | 0.618 | 0.0621 |
| KKRKKGQKQKIN | 0.571 | 0.111 |
| KKYKKGQKQKIN | 0.613 | 0.0672 |
| KLIQPLPVQFLN | 0.574 | 0.0526 |

| Sequence | protein stability index (Saccharomyces cerevisiae [1]) | protein stability index (Saccharomyces cerevisiae [2]) |
| --- | --- | --- |
| KRWRVGLWRGAS | 0.681 | 0.443 |
| LGVYLSCVACIN | 0.166 | 0.0766 |
| LKDLRQKMNHQN | 0.671 | 0.192 |
| LKIERQKMNHQN | 0.682 | 0.333 |
| LKILEQKMNHQN | 0.66 | 0.473 |
| LKILHQKMNHQN | 0.645 | 0.293 |
| LKILLQKMNHQN | 0.678 | 0.249 |
| LKILREKMNHQN | 0.678 | 0.183 |
| LKILRQEMNHQN | 0.672 | 0.437 |
| LKILRQKENHQN | 0.681 | 0.365 |
| LKILRQKMHHQN | 0.706 | 0.231 |
| LKILRQKMNDQN | 0.687 | 0.552 |
| LKILRQKMNHNN | 0.688 | 0.239 |
| LKILRQKMNHQA | 0.629 | 0.19 |
| LKILRQKMNHQNF | 0.698 | 0.616 |
| LKILRQKMNHQNH | 0.69 | 0.655 |
| LKILRQKMNHQS | 0.68 | 0.23 |
| LKILRQKMNHRN | 0.653 | 0.493 |
| LKILRQKNNHQN | 0.687 | 0.425 |
| LKILRQKSNHQN | 0.688 | 0.581 |
| LKILRQMMNHQN | 0.692 | 0.176 |
| LKILYQKMNHQN | 0.679 | 0.259 |
| LKIVRQKMNHQN | 0.696 | 0.197 |

| Sequence | protein stability index (Saccharomyces cerevisiae [1]) | protein stability index (Saccharomyces cerevisiae [2]) |
| --- | --- | --- |
| LVPYLSCVACIN | 0.366 | 0.182 |
| LVRYLSCVACIN | 0.316 | 0.0691 |
| LVVILSCVACIN | 0.0419 | 0.0224 |
| LVVNLSCVACIN | 0.172 | 0.0111 |
| LVVYESCVACIN | 0.402 | 0.343 |
| LVVYISCVACIN | 0.0366 | 0.0144 |
| LVVYKSCVACIN | 0.415 | 0.218 |
| LVVYLECVACIN | 0.0239 | 0.0187 |
| LVVYLGCVACIN | 0.192 | 0.135 |
| LVVYLSCMACIN | 0.0753 | 0.0207 |
| LVVYLSCPACIN | 0.513 | 0.469 |
| LVVYLSCVACINS | 0.0599 | 0.029 |
| LVVYLSCVACLN | 0.0375 | 0.0163 |
| LVVYLSCVACVN | 0.0193 | 0.0169 |
| LVVYLSCVAFIN | 0.0206 | 0.0135 |
| LVVYLSCVAHIN | 0.0209 | 0.0148 |
| LVVYLSMVACIN | 0.0257 | 0.0159 |
| LVVYLSYVACIN | 0.142 | 0.097 |
| LVVYMSCVACIN | 0.0291 | 0.0151 |
| LVVYSSCVACIN | 0.0458 | 0.0132 |
| LVWYLSCVACIN | 0.0212 | 0.0133 |
| MSMRWTFRYWVN | 0.536 | 0.0515 |
| MVVYLSCVACIN | 0.0769 | 0.0181 |

| Sequence | protein stability index (Saccharomyces cerevisiae [1]) | protein stability index (Saccharomyces cerevisiae [2]) |
| --- | --- | --- |
| NKHKKGQKQKIN | 0.562 | 0.122 |
| NSLAASFWRVVG | 0.679 | 0.147 |
| PDFRNHLIKLLN | 0.619 | 0.112 |
| PDKREHLIKLLN | 0.716 | 0.158 |
| PDKRKHLIKLLN | 0.583 | 0.171 |
| PDKRNHCIKLLN | 0.585 | 0.148 |
| PDKRNHFIKLLN | 0.603 | 0.102 |
| PDKRNHLIKILN | 0.663 | 0.137 |
| PDKRNHLIKLAN | 0.579 | 0.367 |
| PDKRNHLIKLCN | 0.583 | 0.22 |
| PDKRNHLIKLDN | 0.613 | 0.602 |
| PDKRNHLIKLFN | 0.551 | 0.346 |
| PDKRNHLIKLLL | 0.615 | 0.332 |
| PDKRNHLIKLLNM | 0.659 | 0.145 |
| PDKRNHLIKLLNS | 0.669 | 0.117 |
| PDKRNHLIKLLNW | 0.684 | 0.571 |
| PDKRNHLIKLLR | 0.643 | 0.683 |
| PDKRNHLIKLNN | 0.598 | 0.447 |
| PDKRNHLIKLWN | 0.627 | 0.314 |
| PDKRNHLILLLN | 0.635 | 0.114 |
